Data as given in US20200199204A1.

Key:
Assay in all cases: cell-based or functional assay
[1] = molecular target: HIV-1 Env of BG505.w6m (HIV-1)
[2] = molecular target: HIV-1 Env of DU172.17 (HIV-1)
[3] = molecular target: HIV-1 Env of CNE3 (HIV-1)
[4] = molecular target: HIV-1 Env of Q168.a2 (HIV-1)
[5] = molecular target: HIV-1 Env of RHPA.7 (HIV-1)
[6] = molecular target: HIV-1 Env of TRO.11 (HIV-1)
[7] = molecular target: HIV-1 Env of UG037.8 (HIV-1)
[8] = molecular target: HIV-1 Env of CAP256.PI (HIV-1)
[9] = molecular target: HIV-1 Env of QH0692.42 (HIV-1)
[10] = molecular target: HIV-1 Env of 6535.3 (HIV-1)
[11] = molecular target: HIV-1 Env of 96ZM651.02 (HIV-1)
[12] = molecular target: HIV-1 Env of TH976.17 (HIV-1)
[13] = molecular target: HIV-1 Env of Q259.d2.17 (HIV-1)
[14] = molecular target: HIV-1 Env of ZM214.15 (HIV-1)
[15] = molecular target: HIV-1 Env of ZM197.7 (HIV-1)
[16] = molecular target: HIV-1 Env of Q769.d22 (HIV-1)
[17] = molecular target: HIV-1 Env of 6405.v4.c34 (HIV-1)
[18] = molecular target: HIV-1 Env of ZM135.10a (HIV-1)
[19] = molecular target: HIV-1 Env of THRO.18 (HIV-1)
[20] = molecular target: HIV-1 Env of TRJO.58 (HIV-1)
[21] = molecular target: HIV-1 Env of Q461.e2 (HIV-1)
[22] = molecular target: HIV-1 Env of MB201 (HIV-1)
[23] = molecular target: HIV-1 Env of DU422.01 (HIV-1)
[24] = molecular target: HIV-1 Env of KER2018.11 (HIV-1)
[25] = molecular target: HIV-1 Env of KER2008.12 (HIV-1)
[26] = molecular target: HIV-1 Env of DU156.12 (HIV-1)
[27] = molecular target: HIV-1 Env of RW020.2 (HIV-1)
[28] = molecular target: HIV-1 Env of Q23.17 (HIV-1)
[29] = molecular target: HIV-1 Env of CAP244.D3 (HIV-1)
[30] = molecular target: HIV-1 Env of ZM109.4 (HIV-1)
[31] = molecular target: HIV-1 Env of Q842.d12 (HIV-1)
[32] = molecular target: HIV-1 Env of ZM249.1 (HIV-1)
[33] = molecular target: HIV-1 Env of WITO.33 (HIV-1)
[34] = molecular target: HIV-1 Env of PVO.04 (HIV-1)
[35] = molecular target: HIV-1 Env of ZM233.6 (HIV-1)
[36] = molecular target: HIV-1 Env of 0260.v5.c36 (HIV-1)
[37] = molecular target: HIV-1 Env of 191821.E6.1 (HIV-1)
[38] = molecular target: HIV-1 Env of CAP210.E8 (HIV-1)
[39] = molecular target: HIV-1 Env of CAAN.A2 (HIV-1)
[40] = molecular target: HIV-1 Env of REJO.67 (HIV-1)
[41] = molecular target: HIV-1 Env of CAP45.G3 (HIV-1)
[42] = molecular target: HIV-1 Env of MB539.2B7 (HIV-1)
[43] = molecular target: HIV-1 Env of 3016.V5.c36 (HIV-1)
[44] = molecular target: HIV-1 Env of ZM53.12 (HIV-1)
[45] = molecular target: HIV-1 Env of C1080.c3 (HIV-1)
[46] = molecular target: HIV-1 Env of AC10.29 (HIV-1)
[47] = molecular target: HIV-1 Env of CM244.ec1 (HIV-1)
[48] = molecular target: HIV-1 Env of CAP256.SU (HIV-1)
[49] = molecular target: HIV-1 Env of SC422.8 (HIV-1)

CAP256-VRC26.20 (antibody)
> 50 µg/mL: IC50 [1] | IC50 [2] | IC50 (neutralization, TZM-bl) [3] | IC50 [4] | IC50 [5] | IC50 [6] | IC50 [7] | IC50 [8] | IC50 [9] | IC50 [10] | IC50 [11] | IC50 (neutralization, TZM-bl) [12] | IC50 [13] | IC50 [14] | IC50 [15] | IC50 [16] | IC50 [17] | IC50 [18] | IC50 [19] | IC50 [20] | IC50 [21] | IC50 [22] | IC50 [23] | IC50 [24] | IC50 [25] | IC50 [26] | IC50 [27] | IC50 [28] | IC50 [29] | IC50 [30] | IC50 [31] | IC50 [32] | IC50 [33] | IC50 [34] | IC50 [35] | IC50 [36] | IC50 [37] | IC50 [38] | IC50 [39] | IC50 [40] | IC50 [41] | IC50 [42] | IC50 [43] | IC50 [45] | IC50 [46] | IC50 [47] | IC50 [48] | IC50 [49]
1.87 µg/mL: IC50 [44]

CAP256-VRC26.13 (antibody)
3.74 µg/mL: IC50 [43]
0.039 µg/mL: IC50 [44]
0.019 µg/mL: IC50 [48]
0.094 µg/mL: IC50 [38]
> 50 µg/mL: IC50 [1] | IC50 [2] | IC50 [3] | IC50 [4] | IC50 [5] | IC50 [6] | IC50 [7] | IC50 [8] | IC50 [9] | IC50 [10] | IC50 [11] | IC50 [12] | IC50 [13] | IC50 [14] | IC50 [15] | IC50 [16] | IC50 [17] | IC50 [18] | IC50 [19] | IC50 [20] | IC50 [21] | IC50 [22] | IC50 [23] | IC50 [24] | IC50 [25] | IC50 [26] | IC50 [27] | IC50 [28] | IC50 [29] | IC50 [30] | IC50 [31] | IC50 [32] | IC50 [33] | IC50 [34] | IC50 [35] | IC50 [36] | IC50 [37] | IC50 [39] | IC50 [40] | IC50 [41] | IC50 [42] | IC50 [45] | IC50 [46] | IC50 [47] | IC50 [49]
